Consider 2 molecules from patent publication US20250011468A1 (Novo Nordisk, published 2025).

In assay [1] the target is desGla-desEGF1-FX Y230A (human, UniProt P00742 126-488). Description: SPR (Biacore T200), antibody captured by anti-hIgG Fc, FX variant injected (10 µM); % of wild-type binding. The method, then: Identification of hot-spot epitope residues was done using a Biacore T200 instrument at 25° C. Anti-hIgG Fc antibody from the Human Antibody Capture Kit (GE Healthcare, Catalogue #BR100839) at 2 μg/ml was immobilized on a Series S Sensor Chip CM5 (GE Healthcare, Catalogue #BR100530) using standard amine coupling chemistry. The anti-FX antibody mAb4-6934 (monovalent variant of mAb1-6723) was injected at the flow rate of 5 μL/min for 30 sec and captured by the immobilized anti-hIgG Fc antibody. […] Binding data were analyzed using steady-state fitting according to the 1:1 model in the Biacore Evaluation Software 2.0 supplied by GE Healthcare. Binding data are reported as % binding of FX variants to the anti-FX antibody (monovalent mAb1-6723) relative to binding of the wild-type FX to the anti-FX antibody at 5 or 10 μM FX variants injected and are calculated according to the formula: […]
Sequence of desGla-desEGF1-FX Y230A (P00742 other isoform, or with tags, fused parts or gaps Y230A Y230A): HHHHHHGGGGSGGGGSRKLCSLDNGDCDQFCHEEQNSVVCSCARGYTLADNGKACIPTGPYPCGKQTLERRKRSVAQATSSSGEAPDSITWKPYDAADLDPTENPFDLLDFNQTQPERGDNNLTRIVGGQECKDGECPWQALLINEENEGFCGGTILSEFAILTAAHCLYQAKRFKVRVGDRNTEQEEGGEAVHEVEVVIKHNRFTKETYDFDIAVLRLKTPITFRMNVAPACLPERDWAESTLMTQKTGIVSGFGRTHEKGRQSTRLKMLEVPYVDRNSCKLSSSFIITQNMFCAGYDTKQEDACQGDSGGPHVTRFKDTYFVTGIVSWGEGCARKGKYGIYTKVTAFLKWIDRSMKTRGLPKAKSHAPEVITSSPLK

Assay [2] has as its target desGla-desEGF1-FX E228A (human, UniProt P00742 126-488). Description: SPR (Biacore T200), antibody captured by anti-hIgG Fc, FX variant injected; % of wild-type binding.
Assay [3] has as its target desGla-desEGF1-FX R113A (human, UniProt P00742 126-488). The description is as above.
Assay [4] concerns the target desGla-desEGF1-FX K420A (human, UniProt P00742 126-488). Described as above.
Assay [5] concerns the target desGla-desEGF1-FX T116A (human, UniProt P00742 126-488). The assay is described as above.
Assay [6] deals with desGla-desEGF1-FX E103A (human, UniProt P00742 126-488). The assay is described as above.
Sequence of desGla-desEGF1-FX E103A (P00742 other isoform, or with tags, fused parts or gaps E103A E103A): as the sequence (P00742 other isoform, or with tags, fused parts or gaps Y230A Y230A) above, with E34A, A161Y counted along it
In assay [7] the target is desGla-desEGF1-FX T428A (human, UniProt P00742 126-488). The assay is described as above.
Sequence of desGla-desEGF1-FX T428A (P00742 other isoform, or with tags, fused parts or gaps T428A T428A): as the sequence (P00742 other isoform, or with tags, fused parts or gaps Y230A Y230A) above, with A161Y, T359A counted along it
In assay [8] the target is desGla-desEGF1-FX T127A (human, UniProt P00742 126-488). Described as above.
Sequence of desGla-desEGF1-FX T127A (P00742 other isoform, or with tags, fused parts or gaps T127A T127A): as the sequence (P00742 other isoform, or with tags, fused parts or gaps Y230A Y230A) above, with T58A, A161Y counted along it
Assay [9] has as its target desGla-desEGF1-FX L419A (human, UniProt P00742 126-488). Described as above.
For assay [10], the target named is desGla-desEGF1-FX R287A (human, UniProt P00742 126-488). The assay is described as above.
Sequence of desGla-desEGF1-FX R287A (P00742 other isoform, or with tags, fused parts or gaps R287A R287A): as the sequence (P00742 other isoform, or with tags, fused parts or gaps Y230A Y230A) above, with A161Y, R218A counted along it
For assay [11], the target named is desGla-desEGF1-FX A118S (human, UniProt P00742 126-488). The assay is described as above.
Sequence of desGla-desEGF1-FX A118S (P00742 other isoform, or with tags, fused parts or gaps A118S A118S): as the sequence (P00742 other isoform, or with tags, fused parts or gaps Y230A Y230A) above, with A49S, A161Y counted along it
Assay [12] deals with desGla-desEGF1-FX H101A (human, UniProt P00742 126-488). The description is as above.
Sequence of desGla-desEGF1-FX H101A (P00742 other isoform, or with tags, fused parts or gaps H101A H101A): as the sequence (P00742 other isoform, or with tags, fused parts or gaps Y230A Y230A) above, with H32A, A161Y counted along it
For assay [13], the target named is desGla-desEGF1-FX F229A (human, UniProt P00742 126-488). Described as above.
Sequence of desGla-desEGF1-FX F229A (P00742 other isoform, or with tags, fused parts or gaps F229A F229A): as the sequence (P00742 other isoform, or with tags, fused parts or gaps Y230A Y230A) above, with F160A, A161Y counted along it
The target in assay [14] is desGla-desEGF1-FX S227A (human, UniProt P00742 126-488). The assay is described as above.
Sequence of desGla-desEGF1-FX S227A (P00742 other isoform, or with tags, fused parts or gaps S227A S227A): as the sequence (P00742 other isoform, or with tags, fused parts or gaps Y230A Y230A) above, with S158A, A161Y counted along it
Assay [15] addresses desGla-desEGF1-FX E305A (human, UniProt P00742 126-488). Described as above.
In assay [16] the target is desGla-desEGF1-FX E266A (human, UniProt P00742 126-488). The assay is described as above.
Sequence of desGla-desEGF1-FX E266A (P00742 other isoform, or with tags, fused parts or gaps E266A E266A): as the sequence (P00742 other isoform, or with tags, fused parts or gaps Y230A Y230A) above, with A161Y, E197A counted along it
The target in assay [17] is T1, wild-type desGla-desEGF1-FX (human, UniProt P00742 126-488).
T1 construct: Expressed in HEK293; also called WT; desGLA-desEGF1-hFX
T1 sequence (P00742 other isoform, or with tags, fused parts or gaps): as the sequence (P00742 other isoform, or with tags, fused parts or gaps Y230A Y230A) above, with A161Y counted along it
Described as above.

Assay [18] deals with T2, human plasma-derived FIXa (Haematologic Technologies Inc) (human, UniProt P00740 47-191; P00740 227-461). Description: cell-based or functional assay.
T2 sequence (P00740 47-191, chain 1 of 2): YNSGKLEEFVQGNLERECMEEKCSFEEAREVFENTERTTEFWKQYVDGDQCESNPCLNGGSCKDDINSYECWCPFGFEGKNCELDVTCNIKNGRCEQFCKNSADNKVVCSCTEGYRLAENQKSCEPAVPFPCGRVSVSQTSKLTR
T2 sequence (P00740 227-461, chain 2 of 2): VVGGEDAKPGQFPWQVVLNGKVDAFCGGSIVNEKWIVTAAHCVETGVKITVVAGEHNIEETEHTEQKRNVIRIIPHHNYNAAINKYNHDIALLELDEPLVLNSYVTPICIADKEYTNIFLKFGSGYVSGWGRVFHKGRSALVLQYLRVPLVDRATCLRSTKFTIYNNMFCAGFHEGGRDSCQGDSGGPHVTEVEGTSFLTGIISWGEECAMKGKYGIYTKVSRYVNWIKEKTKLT
Assay [19] deals with T2, human plasma-derived FIXa (Haematologic …). Description: cell-based or functional assay. This is another data set of the same source.

Sequence of desGla-desEGF1-FX R113A (P00742 other isoform, or with tags, fused parts or gaps R113A R113A): as the sequence (P00742 other isoform, or with tags, fused parts or gaps Y230A Y230A) above, with R44A, A161Y counted along it
Sequence of desGla-desEGF1-FX K420A (P00742 other isoform, or with tags, fused parts or gaps K420A K420A): as the sequence (P00742 other isoform, or with tags, fused parts or gaps Y230A Y230A) above, with A161Y, K351A counted along it
Sequence of desGla-desEGF1-FX E228A (P00742 other isoform, or with tags, fused parts or gaps E228A E228A): as the sequence (P00742 other isoform, or with tags, fused parts or gaps Y230A Y230A) above, with E159A, A161Y counted along it
Sequence of desGla-desEGF1-FX E305A (P00742 other isoform, or with tags, fused parts or gaps E305A E305A): as the sequence (P00742 other isoform, or with tags, fused parts or gaps Y230A Y230A) above, with A161Y, E236A counted along it
Sequence of desGla-desEGF1-FX T116A (P00742 other isoform, or with tags, fused parts or gaps T116A T116A): as the sequence (P00742 other isoform, or with tags, fused parts or gaps Y230A Y230A) above, with T47A, A161Y counted along it
Sequence of desGla-desEGF1-FX L419A (P00742 other isoform, or with tags, fused parts or gaps L419A L419A): as the sequence (P00742 other isoform, or with tags, fused parts or gaps Y230A Y230A) above, with A161Y, L350A counted along it

B1: mAb4-6934 (monovalent one-armed variant of mAb1-6723) (antibody, V domains shown)
VH: EVQLVQSGAEVKKPGESLRISCKGSGYSFTTSWIVWVRQMPGKGLEWMGMIDPSDSFTSYSPSFQGHVTISADKSISTAYLQWSSLKASDTAMYYCARLHYYHSEEFDVWGQGTLVTVSS
VL: EIVLTQSPGTLSLSPGERATLSCRASQSVSSSYLAWYQQKPGQAPRLLIYGASSRARGIPDRFSGSGSGTDFTLTISRLEPEDFAVYYCQQFGSSRLFTFGQGTKLEIK
notes: also called monovalent mAb1-6723
Turning to B1, the “Binding (%) relative to wild-type” value in assay [1] was 1%; in assay [2], 80%; in assay [3] it was 28%; in [4], 23%; in assay [5], 114%; in [6] it was 71%. Also, the “Binding (%) relative to wild-type” value in assay [7] was found to be 81%; in assay [8] it was 113%; in assay [9], 50%; in [10], 66%; in [11] it was 102%; in assay [12], 51%. Also, the “Binding (%) relative to wild-type” value in [13] was determined as 99%; in assay [14], 66%; in assay [15] it was 97%; in assay [16], 112%; in assay [17], 100%.

B2: mAb1-4861 (antibody, V domains shown)
VH: EVQLVESGGGLVQPGRSLKLSCAASGFTFDDYAMHWVRQVPGKGLEWVSGISWNGDNIGYVDSVKGRFTISRDNAKNSLYLQLNSLRAEDTALYYCVKSYGSGSFYNAFDSWGQGTLVTVSS
VL: DIQMTQSPSTLSASAGDRVTITCRASQSISSWLAWYQQKPGKAPKFLIYKASRLERGVPSRFSGSGSGTEFSLTISSLQPDDFATYYCLEYSSYIRTFGQGTKVEIK
In the case of B2, in [18], the “FXa generation rate at 3.2 nM mAb” value was found to be 434 pM/min, the “FXa generation rate at 6.3 nM mAb” value came out at 415 pM/min, the “FXa generation rate at 12.5 nM mAb” value was determined as 385 pM/min and the “FXa generation rate at 25 nM mAb” value was 382 pM/min. Moreover, in assay [18], the “FXa generation rate at 50 nM mAb” value came to 352 pM/min, the “FXa generation rate at 100 nM mAb” value came to 364 pM/min and the “FXa generation rate at 200 nM mAb” value amounted to 411 pM/min. In addition, the “Peak stimulatory activity relative to 224F3” value in [19] is 21.7 fold relative to 224F3.
